{"source": "the nanobody polyreactivity screen of Harvey et al. (2022)"}
{"experiment": "yeast display, Sf9 membrane polyspecificity reagent, FACS + sequencing; frameworks hold sequencing errors", "method_in_brief": "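Galactose-induced (36–48 hours) yeast carrying a synthetic nanobody display library were exposed to 10% biotinylated, detergent-solubilized Sf9 membrane reagent at 4 °C for 1 hour. FACS followed streptavidin microbead enrichment, using low and high (top ~1%) gates for expression (anti-HA) and reagent binding (streptavidin). Colony PCR, MiSeq 2 × 250 sequencing and CDR-length filtering followed. Labels for polyreactivity reflect the gate of origin.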"}
{"sequence": "QVQLVESGGGLVQAGGSLRLICAASGRTFKFNAMGWYRQAPGKERELVARITGGRTNYADSVKGRFTISRDNAKNTVYLQLNSLKPEDTAVYYCAADRYYGYSQDRRRYGYWGQGTQVTVSS", "polyreactivity (PSR sort gate)": "high polyreactivity"}
{"sequence": "QVQLVESGGGFVQAGGSLRLSCAASGRIFRYYAMGWSRQAPGKERELVAAINSGGSTKYADSVKGRFTISRDNAKNTVYFQMNSLNPEDTAVYYCNKDHAFSRYWYGGFDYWGQGTQVTVSS", "polyreactivity (PSR sort gate)": "high polyreactivity"}
{"sequence": "QVQLVESGGGLVQAGGSLRLSCAASGRTFFYYAMGWYRQAPGKERELVAAISTGGSTNYADSVKGRFTISRDNAKNTVYLQMNSLKPEDTAVYYCNADYDKGVRFNFNASFGEFDYWGQGTQVTVSS", "polyreactivity (PSR sort gate)": "low polyreactivity"}
{"sequence": "QVQLVESGGGLVQAGGSLRLSCAASGTFGLYAMGWYRQAPGKERELVAAIRARGGSTYYADSVKGRFTISRDNAKNTLYLQKNSLKPEETAVYYCAAEFWDVALARKQWYDYWGQGTQVTVSS", "polyreactivity (PSR sort gate)": "high polyreactivity"}
{"sequence": "QVQLVESGGGLVQAGGSLRLSCAASGRIFFNAMGWYRQAPGKEREFVAAIRTSGGTTYYADSVKGRFTISRDNAKNTVYLQMNSLKPEDTAVYYCAAWRWYYPVRNRAQYVRGDYWGQGTQVTVSS", "polyreactivity (PSR sort gate)": "high polyreactivity"}
{"sequence": "QVQLVESGGGLVQAGGILRLSCAASGRIFYINAMGWYRQAPGKERELVATISWSGGSTNYADSVKGRFTISRDNAKNTVYLQMKSLIPEDTAVYYCAADSRIYIAYAVRSYERDYWGQGTQVSVSS", "polyreactivity (PSR sort gate)": "low polyreactivity"}
{"sequence": "QVQLVESGGGLVQAGGSLRLSCAASGYIFFFYAMGWYRQAPGKERELVASITYRGGSTYYADSVKGRFTISRDNAKNTVYLQMNSLKPEDTAVYYCNVDGGGPLGPQGFPFDYWGQGTQVTVSS", "polyreactivity (PSR sort gate)": "low polyreactivity"}
{"sequence": "QVQLQESAGGLVQAGGSLRLRCSASGYISCDASMGWYRQAAGKERELAASITKGSSTNYADSVKGRFTIRDNAKNTVYLQMNSLKPEDTAVCYCAVTYPYWGDYTYWGQGTQVTVSS", "polyreactivity (PSR sort gate)": "low polyreactivity"}
{"sequence": "QVQLVESGGGLVQAGGSLRLSCAASGSIFGINAMGWYRQAPGKERELVAAITNSGANTYYADSVKGRFTISRDNAKNTVYLQMNSLKPEDTAVYYCATDFIGVIYDYWGQGTQVTVSS", "polyreactivity (PSR sort gate)": "low polyreactivity"}
{"sequence": "QVQLVESGGGLVQAGGSLCLSCAASGIFVYNAMVWYRQAPGKEREFVAAINKSGASTFYADSVKGRFTISRDNAKNTVYLQMNSLKPEDTAVYYCRERDYWGQGTQVTVSS", "polyreactivity (PSR sort gate)": "low polyreactivity"}
{"sequence": "QVQLVESGGGLVQAGGSLRLSCAASGRTLYRYAMGWYRQEPGKERELVAAIRSGGRTNYADSVKGRFTISRDNAKNTVYLQMNSLKPEDTAVYYCAARTLRYPSTYDYWGQGTQVTVSS", "polyreactivity (PSR sort gate)": "high polyreactivity"}
{"sequence": "QVQLVESGGGLVQAGGSLRLSCAASGFTFDRNAMGWYRQATWKERELVAAITWTGGSTYYADSVKGRFTISRDNAKNTVYLQMNSLKPEDTAVYYCAATLPYSRGWFYYWGQGTQVTVSS", "polyreactivity (PSR sort gate)": "high polyreactivity"}
{"sequence": "QVQLVESGGGLVQAGGSLRLSCAASGRTLYANTMGWYRPAPGKERELVATIPRDGSTNYADSVKGRFTISRDTAKNTVYLQMNSLKPEDTAVYYCNADLWVNLDNDDDYWGQGTQVTVSS", "polyreactivity (PSR sort gate)": "low polyreactivity"}
{"sequence": "QVQLVESGGGLVQAGGSLRLSCAASGRTFSPYAMGWYRQAPVKERELVAAITSGGRTNYADSVKGRFTISRDNAKNTVYLQMNSLKPEDTAVYYCAARSGRYRWTRFDYWGQGTQVTVSS", "polyreactivity (PSR sort gate)": "low polyreactivity"}
{"sequence": "QVQHVESGGGLVQAGGSLRLSCAASGRTFDWNAMGWYRQAPGKERELVAAITYSGGGTYYADSVKGRFTISRDNAKNTVYLQMNSLKPEETAVYYCAAGYPGTWSYYYWGQGTQVTVSS", "polyreactivity (PSR sort gate)": "low polyreactivity"}
{"sequence": "QVQLVESGGGLVQAGGSLRLSCAASGSIFSSNAMGWYRQAPGKDRELVASISWTGGNTYADSVKGRFTISRDNAKNTVYLQMNSLKPEDTAVYYCNAGRSWDYWYGYDYWGQGTQVTVSS", "polyreactivity (PSR sort gate)": "low polyreactivity"}
{"sequence": "QVQLVESGGGLVQAGGSLRLSCAASGRIFLSYTMGWYRQAPGKERELVAAITSGGSTYYADSVKGRFTISRDNAKNTVYLQMNSLKPEDTAVYYCATDYGYSWYDYWGQGTQVTVSS", "polyreactivity (PSR sort gate)": "low polyreactivity"}
{"sequence": "QVQLVESGGGLVQAGGSLRLTCAASGSIFGVYTMGWYRQAPGKERELVAAITSAGSTYADSVKGRFTISRDNAKNTVYLQMNSLNPEDTEVYYCNAQSFLLSLRVELREPHEYWGQGTQVTVSS", "polyreactivity (PSR sort gate)": "low polyreactivity"}
{"sequence": "QVQLVESGGGLVQAGGSLRLTCAASGSTFNAYTMGWYRQAPGKERELVAAISSGAGTYYADSVKGRFTISRDNAKYIVYLPMNSLKPEDTAVYYCAADPVGYYDPSVYWGQGTLVTVSS", "polyreactivity (PSR sort gate)": "low polyreactivity"}
{"sequence": "QVQLVESGGGLVQAGGSLRLSCAASGRTFYRNAMGWYRQAPGKERELVASIRRNGGSTYYADSVKGRFTISRDNAKNTVYLQMNSLKPEDTAVYYCAAKFYWRGQSFRSGNFYWGQGTQVTVSS", "polyreactivity (PSR sort gate)": "high polyreactivity"}
{"sequence": "QVQLVESGGGLVQAGGSLRLSCAASGSTFEVYTMGWSIQSPGKVRELVATISGDDGSTYYADSVKGRFTISRDNAKNTVYLQMNSLKPEDTAVYYCAADYGGFPNYYSTGDYWGQGTQVTVSS", "polyreactivity (PSR sort gate)": "low polyreactivity"}
{"sequence": "QVQIVESGGGLVQAGGSLRLSCAASGSIFVWYAMGWYRQAPGKERELVARITSGGRTNYADSVKGRFTISRDNAKNTVYLQMNSLKPEDTAVYYCAAGRVSWSPYYYWGQGTQVTVSS", "polyreactivity (PSR sort gate)": "high polyreactivity"}
{"sequence": "QVQLVESGGGLFQEGGSLRLSCAASGRIFYGYGMGWYRQAPGKERELVAAITWSGSRTYYADSVKGRFTISRDNAKNTVYVQMNSLKPEDTAVYYCAARIPSDGYYYWGQGTQVTVSS", "polyreactivity (PSR sort gate)": "high polyreactivity"}
{"sequence": "QVQLVESGGGLVQAGGSRRLSCAASGSTFARYPMGWYRQAPGKERELVATITRGGSTNYADSVKGRFTISRDNAKNTVYLQMNSLKPEDTAVYYCNARCGRSPYGYGDYYWGQGTQVTVSS", "polyreactivity (PSR sort gate)": "high polyreactivity"}
{"sequence": "QVQLVESGGGLVQAGGSLRLSCAASGIIFDDNAMGWYRQAPGKERELVAAINRDGSTYYADSVKGRFTISRDNAKNTVYLQLNSLKPEDTAVYYWAADFYGPRSAVYFLRYSTRYYWGQGTQVTVSS", "polyreactivity (PSR sort gate)": "low polyreactivity"}
{"sequence": "QVQLVESGGGLVQAGGSLRLSCAASGSIFNWYAMGWYRQAPGNERELVADISWSDGDTYYADSVKGRFSISRDNAKNTDYLQMNSLKPEDTAVYYSAAASNLYYPYYVLGDPYDYWGQGTQVTVSS", "polyreactivity (PSR sort gate)": "low polyreactivity"}
{"sequence": "QVQLVESGGGLVQAGGSLRLSCAASGSIFGYYTMGWYRQAPGKERELVAAITSGGSTNYADSVKGRFTISRDNAKNTVYLQMNSLKPEETAVYYCAKVSYYTWRYDYWGQGTQVTVSS", "polyreactivity (PSR sort gate)": "low polyreactivity"}
{"sequence": "QVHLVESGGGLVQAGGSLRLSCAASGRTFAYNTMGWYRQAPGKERELVAAISSDGSTNYADSVKGRFTISRDNAKNTVYLQMNSLKPEDTAVYYCAKGEGTGYSDTQVYEHDYWGQGTQVTVSS", "polyreactivity (PSR sort gate)": "low polyreactivity"}
{"sequence": "QVQLVESGGGLVQAGGSLRLSCAASGRIFVDNTMGWYRQAPGKERELVAAISRRGTSTYYADSVKGRFTISRDTAKNTVFLQMNSLNPEDTAVYYCAADYYYYDSQQGMDYWGQGTQVTVSS", "polyreactivity (PSR sort gate)": "high polyreactivity"}
{"sequence": "QVQLVESGGGLVQAGGSLRLSSAASGSTSYYYVMGWYRQAPGKERELVAAISNGDTTNYADSVKGRITITRDNEKNTVYLQMNSLKPEVTAVDYCAAVYYRSFHDYGYWGQGTQVTVSS", "polyreactivity (PSR sort gate)": "low polyreactivity"}
{"sequence": "QVQLVESGRGLVQAGGSLRLSCAASGRIFSVNTMGWYRQAPGKERELVAGITGGGSTNYADSVKGRFTISRDNAKNTVYLQMNSLKPEDTAVYYCAAGWRSGFDYWGQGTQVTVSS", "polyreactivity (PSR sort gate)": "high polyreactivity"}
{"sequence": "QVQLVESGGGLVQAGGSLRLSCAASGSIFNGNAMGWYRQAPGKERELVAAISRNRGSTYYADSVKGRFTISRDNAKNTVYLQMNSLKPEDTAVYYCPTDLTVYYSYYWMYWGQGTQVTVSS", "polyreactivity (PSR sort gate)": "low polyreactivity"}
{"sequence": "QVQLVESGGGLVQAGGSLRLSCAASGFTFHGYTMGWYRQAPGKERELVAAITSGGGTNYADSVKGRFTISRVNAKNTVYLQKNSLKPEDTAVYYCAAVGTVPRKQRYHSYIDYDYWGQGTQVTVSS", "polyreactivity (PSR sort gate)": "low polyreactivity"}
{"sequence": "QVQLVESGGGLVQAGGSLRLSCAASGRTFGRNAMGWYRQAPGKERELVAAINSGGSTKYADSVKGRFTISRDNAKNTVYLQMNSLKPEDTAVYYCARRGGFSYYYWGQGTQVTVSS", "polyreactivity (PSR sort gate)": "high polyreactivity"}
{"sequence": "QVQLVESGGRLVQAGGSLRLSCPASGSTFGVYAMGWYRPEPGKEREFVAAINYSGRTYYADSVKGLFTISRDNAKITVYLQMNSLKPEDTAVYYCNADFFYRYYGAYDYWGQGNQVTVSS", "polyreactivity (PSR sort gate)": "high polyreactivity"}
{"sequence": "QVQLVESGGGLVQAGGSLRLSCAASGRIFSYAMGWYRQAPGKERELVAGISRSGGSTYYADSVKGRFTISRDNAKNTVYLQMNSLKPEDTAVYYCAAVKIRTVYKYNYWGQGTQVTVSS", "polyreactivity (PSR sort gate)": "high polyreactivity"}
{"sequence": "QVQLVESGGGLVQAGGSLRLSCAASGIILDPNAMGWYRQAPGKEREMVAGITRSGVSTYYADSVKGRFTISRDNAKNTVYLQMNSLKPEDTAVYYCANDRIYGSKGEDDDYWGQGTQVSVSS", "polyreactivity (PSR sort gate)": "low polyreactivity"}
{"sequence": "QVQLVESGGGLVQAGGSLRLSSAASGRIFDGNAMGGYRQAPGTERELVATINRGARTNYADSVKGRFTISRDNAKNTVYLQMNSLKPEDTAVYYCATSYPGYAYNQAWYPYGYWGQGTQVTVSS", "polyreactivity (PSR sort gate)": "low polyreactivity"}
{"sequence": "QVQLVESGGGLVHAGGSLSLSCAASGSIFGQYAMGWYRQAPGKERELVAAISYSTDARTYYADSVKGRFTISRDNAKNTVYLQMNSLKPEDTAVYYFNADSYFGYWGQGTQVTVSS", "polyreactivity (PSR sort gate)": "low polyreactivity"}
{"sequence": "QVQLVESGGGLVQAGGSLRFSCAASGSTFRKNAMGWYRQAPGKERELFASISISGGRTNYADSVKGRFTISRDHAKNTVYLQLNSLKPEDTAVYDCAATTSPRSARYYYWGQGTQVTVSS", "polyreactivity (PSR sort gate)": "high polyreactivity"}
{"sequence": "QVQLVESGGGLVQAGGSLRLSCAASGRTFSTYAMGWCRQAPGKERELVAAISRRGGSTYYADSVKGRFTISRDNAKYTVYLQMNSLKPEDTAVYYGAADSYDSDVNEYDYWGQGTQVTVSS", "polyreactivity (PSR sort gate)": "high polyreactivity"}
{"sequence": "QVQLVESGGGLVQAGGSLRLSCAASGITFPLYAMGWYRQAPGKETELVASITRGGTTNYADSVKGRFTISRDNAKNTVYLQMNRLKPEDTAVYYCAAEVTRDRGFDYWGQGTQVTVSS", "polyreactivity (PSR sort gate)": "low polyreactivity"}
{"sequence": "QVQLVESGGGLVQEGGSLRLSCASSGFTFAYNAMVLYRQAPGKERELVAGINSSGDGTYYADSVKGRFTISRDNAKNTVYLQMNSLKPEETAVYYCAADYTRFYPDGSDVDYDYWGQGTQVTVSS", "polyreactivity (PSR sort gate)": "low polyreactivity"}
